Here are results for 5 molecules from article PMC9128377.

Where two headings read alike, the source gives them in different places.

What all share (experiment): fluorescence anisotropy
A general note: In fluorescence polarisation assays a small probe gives low polarisation when free and higher when bound to something large.

The target of data set [1] is T1, U2AF2 12L (RRM1-RRM2) (UniProt P26368 141-342).
Data set [2] concerns the target T2, U2AF2 12L G297D (UniProt P26368 141-342, G297D).
The target of the next data set is U2AF2 12L R227N (UniProt P26368 141-342, R227N).
The next data set deals with U2AF2 12L K225N (UniProt P26368 141-342, K225N).
In data set [3] the target is T2, U2AF2 12L G297D. The source holds these as a separate data set.
Data set [4] addresses T1, U2AF2 12L (RRM1-RRM2). The source holds these as a separate data set.
Data set [5] concerns the target T1, U2AF2 12L (RRM1-RRM2). This is another data set of the same source.

T2 sequence (P26368 141-342 G297D): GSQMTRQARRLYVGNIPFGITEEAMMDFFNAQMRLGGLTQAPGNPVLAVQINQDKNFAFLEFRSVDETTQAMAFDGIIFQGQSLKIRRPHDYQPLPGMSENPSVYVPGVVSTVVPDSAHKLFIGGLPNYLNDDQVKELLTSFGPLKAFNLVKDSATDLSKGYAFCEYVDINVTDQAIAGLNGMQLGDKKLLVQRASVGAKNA
T1 sequence (P26368 141-342): as the sequence (P26368 141-342 G297D) above, with D157G counted along it
Chain of U2AF2 12L K225N (P26368 141-342 K225N): as the sequence (P26368 141-342 G297D) above, with K85N, D157G counted along it
Chain of U2AF2 12L R227N (P26368 141-342 R227N): as the sequence (P26368 141-342 G297D) above, with R87N, D157G counted along it

As for UUUUGUUUU (ssRNA) [U9 G5], the binding signal in the data set with U2AF2 12L (RRM1-RRM2) [1] is below 2 fold Kd increase vs N5; in the data set with U2AF2 12L G297D [2] it was around 2 fold penalty; with U2AF2 12L R227N, above 5 fold penalty; with U2AF2 12L K225N it was above 5 fold penalty.
With UUUUCUUUU (ssRNA) [U9 C5], the binding signal with U2AF2 12L G297D [3] is around 2 fold penalty. In addition, the binding result in the data set with U2AF2 12L (RRM1-RRM2) [4] was “binds”.
Regarding UUUUUGUUU (ssRNA) [U9 G6], the binding signal in the data set with U2AF2 12L (RRM1-RRM2) [5] was around 3 fold Kd increase vs N5.
Consider UUUUAUUUU (ssRNA) [U9 A5], for which the binding signal was around 2 fold penalty with U2AF2 12L G297D [2], above 5 fold penalty with U2AF2 12L R227N and above 5 fold penalty in the data set with U2AF2 12L K225N.
On to UUUGUUUUU (ssRNA) [U9 G4], for which the binding signal with U2AF2 12L (RRM1-RRM2) [5] is around 3 fold Kd increase vs N5.
